{
  "source": "patent US20220146515A1",
  "about": "(XIAMEN INNODX BIOTECH, published 2022)",
  "key": {"[1]": {"biological_target": "T1, AMH3647-23 (Cattle sequence) (Cattle)", "T1 peptide": "ALIFQQAWDWPL", "assay": "competition ELISA, AMH-coated plate", "description": "(§1) 1. AMH antigen was diluted with carbonic acid buffer (20 mmol/L CB, pH 9.6) and then coated on a polyvinyl chloride plate. In the pretreatment, the antibody purified by the protein A column and the synthesized short peptides with different human AMH36-47 amino acid mutations (see Table 6 for each synthesized sequence) were subjected to proportion incubation (100 ng/ml antibody: 50 ug/ml truncated antigen) for 30 minutes, that were test samples; the control sample was (100 ng/ml antibody: PBS) and incubated for 30 minutes, and then the test samples after incubation and the control sample were added to AMH antigen plate and incubated for 30 minutes, the plate was washed for 5 times, added with GAM-HRP (1/5000 dilution) and incubated for 30 minutes, the plate was washed for 5 times, and the substrate was added and incubated for 15 minutes. The values under wavelength of 450/620 were read by microplate reader, and the detected OD values were finally calculated and analyzed. The calculation formula was: (control sample OD value−test sample OD value)/control sample OD value, and the criterion for determination was as follows: 90% or more, which represented that there was cross-reaction."}, "[2]": {"biological_target": "T2, AMH3647-19 (Dog sequence) (Dog)", "T2 peptide": "GLLFQPDWDWPP", "assay": "competition ELISA, AMH-coated plate", "description": "as §1"}, "[3]": {"biological_target": "T3, AMH3647-22 (Mouse sequence) (Mouse)", "T3 peptide": "GLIFLEDELWPP", "assay": "competition ELISA, AMH-coated plate", "description": "as §1"}, "[4]": {"biological_target": "T4, AMH3647-25 (Horse sequence) (Horse)", "T4 peptide": "GLIFHQDWDWPP", "assay": "competition ELISA, AMH-coated plate", "description": "as §1"}, "[5]": {"biological_target": "T1, AMH3647-23 (Cattle sequence)", "assay": "competition ELISA, antibody preincubated with target, AMH-coated plate"}, "[6]": {"biological_target": "T5, AMH3647-7 (Cat sequence) (Cat)", "T5 peptide": "GLIFHPDWDWQP", "assay": "competition ELISA, antibody preincubated with target, AMH-coated plate"}, "[7]": {"biological_target": "T6, AMH3647-1 (Deer sequence) (Deer)", "T6 peptide": "ALIFQQDWDWPL", "assay": "competition ELISA, antibody preincubated with target, AMH-coated plate"}, "[8]": {"biological_target": "T7, AMH3647-24 (Owl sequence) (Owl)", "T7 peptide": "GLIFGEDVDWPP", "assay": "competition ELISA, antibody preincubated with target, AMH-coated plate"}, "[9]": {"biological_target": "T8, AMH3647-2 (Beaver sequence) (Beaver)", "T8 peptide": "DLIFHEDWAWPP", "assay": "competition ELISA, antibody preincubated with target, AMH-coated plate"}, "[10]": {"biological_target": "T2, AMH3647-19 (Dog sequence)", "assay": "competition ELISA, antibody preincubated with target, AMH-coated plate"}, "[11]": {"biological_target": "T9, AMH3647-4 (Lemur sequence) (Lemur)", "T9 peptide": "GLIFHEDWDWLP", "assay": "competition ELISA, antibody preincubated with target, AMH-coated plate"}, "[12]": {"biological_target": "T10, AMH3647-8 (Myotis sequence) (Myotis)", "T10 peptide": "GLIFHQDWDWPA", "assay": "competition ELISA, antibody preincubated with target, AMH-coated plate"}, "[13]": {"biological_target": "T4, AMH3647-25 (Horse sequence)", "assay": "competition ELISA, antibody preincubated with target, AMH-coated plate"}, "[14]": {"biological_target": "T11, AMH3647-16 (Degu sequence) (Degu)", "T11 peptide": "GLIFPEDWVWPP", "assay": "competition ELISA, antibody preincubated with target, AMH-coated plate"}, "[15]": {"biological_target": "T12, AMH3647-17 (Chimpanzee sequence) (Chimpanzee)", "T12 peptide": "GLIFPEDLDWPP", "assay": "competition ELISA, antibody preincubated with target, AMH-coated plate"}, "[16]": {"biological_target": "T13, AMH3647-10 (Pig sequence) (Pig)", "T13 peptide": "GLIFHWDWNWPP", "assay": "competition ELISA, antibody preincubated with target, AMH-coated plate"}, "[17]": {"biological_target": "T14, AMH3647-20 (Goat sequence) (Goat)", "T14 peptide": "TLIFQQDWDWPL", "assay": "competition ELISA, antibody preincubated with target, AMH-coated plate"}, "[18]": {"biological_target": "T15, human AMH36-47 short peptide, mutation site 37 (human)", "T15 peptide": "GAIFREDLDWPP", "assay": "competition ELISA, antibody preincubated with target, AMH-coated plate", "description": "as §1, with “mutations” for “mutations (see Table 6 for each synthesized sequence)”, “follows: a value lower than” for “follows:”, “indicated the corresponding amino acid” for “or more, which represented that there”, “a key amino acid, and the mutation has a great impact on the reaction of antibody.” for “cross-reaction.”"}, "[19]": {"biological_target": "T16, human AMH36-47 short peptide, mutation site 47 (human)", "T16 peptide": "GLIFREDLDWPA", "assay": "competition ELISA, antibody preincubated with target, AMH-coated plate", "description": "as §1, with “mutations” for “mutations (see Table 6 for each synthesized sequence)”, “follows: a value lower than” for “follows:”, “indicated the corresponding amino acid” for “or more, which represented that there”, “a key amino acid, and the mutation has a great impact on the reaction of antibody.” for “cross-reaction.”"}, "[20]": {"biological_target": "T17, human AMH36-47 short peptide, mutation site 44 (human)", "T17 peptide": "GLIFREDLAWPP", "assay": "competition ELISA, antibody preincubated with target, AMH-coated plate", "description": "as §1, with “mutations” for “mutations (see Table 6 for each synthesized sequence)”, “follows: a value lower than” for “follows:”, “indicated the corresponding amino acid” for “or more, which represented that there”, “a key amino acid, and the mutation has a great impact on the reaction of antibody.” for “cross-reaction.”"}, "[21]": {"biological_target": "T18, human AMH36-47 short peptide, mutation site 45 (human)", "T18 peptide": "GLIFREDLDAPP", "assay": "competition ELISA, antibody preincubated with target, AMH-coated plate", "description": "as §1, with “mutations” for “mutations (see Table 6 for each synthesized sequence)”, “follows: a value lower than” for “follows:”, “indicated the corresponding amino acid” for “or more, which represented that there”, “a key amino acid, and the mutation has a great impact on the reaction of antibody.” for “cross-reaction.”"}, "[22]": {"biological_target": "T19, human AMH36-47 short peptide, mutation site 46 (human)", "T19 peptide": "GLIFREDLDWAP", "assay": "competition ELISA, antibody preincubated with target, AMH-coated plate", "description": "as §1, with “mutations” for “mutations (see Table 6 for each synthesized sequence)”, “follows: a value lower than” for “follows:”, “indicated the corresponding amino acid” for “or more, which represented that there”, “a key amino acid, and the mutation has a great impact on the reaction of antibody.” for “cross-reaction.”"}, "[23]": {"biological_target": "T20, human AMH36-47 short peptide, mutation site 38 (human)", "T20 peptide": "GLAFREDLDWPP", "assay": "competition ELISA, antibody preincubated with target, AMH-coated plate", "description": "as §1, with “mutations” for “mutations (see Table 6 for each synthesized sequence)”, “follows: a value lower than” for “follows:”, “indicated the corresponding amino acid” for “or more, which represented that there”, “a key amino acid, and the mutation has a great impact on the reaction of antibody.” for “cross-reaction.”"}, "[24]": {"biological_target": "T21, human AMH36-47 short peptide, mutation site 36 (human)", "T21 peptide": "ALIFREDLDWPP", "assay": "competition ELISA, antibody preincubated with target, AMH-coated plate", "description": "as §1, with “mutations” for “mutations (see Table 6 for each synthesized sequence)”, “follows: a value lower than” for “follows:”, “indicated the corresponding amino acid” for “or more, which represented that there”, “a key amino acid, and the mutation has a great impact on the reaction of antibody.” for “cross-reaction.”"}, "[25]": {"biological_target": "T22, human AMH36-47 short peptide, mutation site 41 (human)", "T22 peptide": "GLIFRADLDWPP", "assay": "competition ELISA, antibody preincubated with target, AMH-coated plate", "description": "as §1, with “mutations” for “mutations (see Table 6 for each synthesized sequence)”, “follows: a value lower than” for “follows:”, “indicated the corresponding amino acid” for “or more, which represented that there”, “a key amino acid, and the mutation has a great impact on the reaction of antibody.” for “cross-reaction.”"}},
  "data": [
    {"binder": "monoclonal antibody C9F2-2 (antibody, V domains shown, Mouse hybridoma antibody purified from ascites; the tie is indirect; also called hybridoma CCTCC NO: C2018183) VH: EVQLVESGGGLVKPGGSLKLSCAASGFAFSTYDMSWVRQTPEKRLEWVAYISPGGGATYYPDTVKGRFTISRDNAKNTLYLQMTSLKSEDTAMYYCAGRRDYYGMDYWGQGTSVTVSS VL: DVVMTQTPLSLPVSLGDQASISCRSSQSLVHSNGNTYLHWYLQKPGQSPKLLIYKVSNRFSGVPDRFSGSGSGTDFTLKISRVEAEDLGVYFCSQSTHVPWTFGGGTKLEIK", "values": [
      {"measurement": "binding result", "setting": "[1]", "result": "no binding (tested: 50 ug/ml peptide)"},
      {"measurement": "binding result", "setting": "[2]", "result": "no binding (tested: 50 ug/ml peptide)"},
      {"measurement": "binding result", "setting": "[3]", "result": "no binding (tested: 50 ug/ml peptide)"},
      {"measurement": "binding result", "setting": "[4]", "result": "no binding (tested: 50 ug/ml peptide)"},
      {"measurement": "percent inhibition", "setting": "[5]", "result": -8, "unit": "%"},
      {"measurement": "percent inhibition", "setting": "[6]", "result": 6, "unit": "%"},
      {"measurement": "percent inhibition", "setting": "[7]", "result": -6, "unit": "%"},
      {"measurement": "percent inhibition", "setting": "[8]", "result": 19, "unit": "%"},
      {"measurement": "percent inhibition", "setting": "[9]", "result": 11, "unit": "%"},
      {"measurement": "percent inhibition", "setting": "[10]", "result": -1, "unit": "%"},
      {"measurement": "percent inhibition", "setting": "[11]", "result": 22, "unit": "%"},
      {"measurement": "percent inhibition", "setting": "[12]", "result": 8, "unit": "%"},
      {"measurement": "percent inhibition", "setting": "[13]", "result": -2, "unit": "%"},
      {"measurement": "percent inhibition", "setting": "[14]", "result": -2, "unit": "%"},
      {"measurement": "percent inhibition", "setting": "[15]", "result": 9, "unit": "%"},
      {"measurement": "percent inhibition", "setting": "[16]", "result": 8, "unit": "%"},
      {"measurement": "percent inhibition", "setting": "[17]", "result": 3, "unit": "%"},
      {"measurement": "percent inhibition", "setting": "[18]", "result": 97, "unit": "%"},
      {"measurement": "percent inhibition", "setting": "[19]", "result": 99, "unit": "%"},
      {"measurement": "percent inhibition", "setting": "[20]", "result": 64, "unit": "%"},
      {"measurement": "percent inhibition", "setting": "[21]", "result": 100, "unit": "%"},
      {"measurement": "percent inhibition", "setting": "[22]", "result": 99, "unit": "%"},
      {"measurement": "percent inhibition", "setting": "[23]", "result": 96, "unit": "%"},
      {"measurement": "percent inhibition", "setting": "[24]", "result": 100, "unit": "%"},
      {"measurement": "percent inhibition", "setting": "[25]", "result": 7, "unit": "%"}
    ]}
  ]
}
